Test in all cases: cell-based or functional assay
The target in experiment [1] is T1, human GLP-1R (Genebank Accession No. NM_002062) on hGLP-1R/CRE-luc/CHO-K1 cells (human), P43220.
T1 chain: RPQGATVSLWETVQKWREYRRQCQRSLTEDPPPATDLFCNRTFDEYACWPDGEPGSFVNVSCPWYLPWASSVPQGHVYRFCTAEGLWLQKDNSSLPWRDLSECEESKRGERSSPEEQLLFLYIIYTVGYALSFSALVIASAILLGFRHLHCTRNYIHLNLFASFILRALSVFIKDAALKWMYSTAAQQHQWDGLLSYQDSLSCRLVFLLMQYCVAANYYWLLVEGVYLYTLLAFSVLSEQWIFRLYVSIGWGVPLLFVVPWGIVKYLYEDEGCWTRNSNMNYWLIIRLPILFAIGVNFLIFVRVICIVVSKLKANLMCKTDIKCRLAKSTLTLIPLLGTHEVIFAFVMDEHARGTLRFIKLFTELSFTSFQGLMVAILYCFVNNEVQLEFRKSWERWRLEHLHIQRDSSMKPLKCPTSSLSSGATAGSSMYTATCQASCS

Experiment [2] concerns the target T2, human GIPR (Genebank Accession No. U39231) on hGIPR/CRE-LUC/CHO-K1 cells (human), P48546.
T2 chain: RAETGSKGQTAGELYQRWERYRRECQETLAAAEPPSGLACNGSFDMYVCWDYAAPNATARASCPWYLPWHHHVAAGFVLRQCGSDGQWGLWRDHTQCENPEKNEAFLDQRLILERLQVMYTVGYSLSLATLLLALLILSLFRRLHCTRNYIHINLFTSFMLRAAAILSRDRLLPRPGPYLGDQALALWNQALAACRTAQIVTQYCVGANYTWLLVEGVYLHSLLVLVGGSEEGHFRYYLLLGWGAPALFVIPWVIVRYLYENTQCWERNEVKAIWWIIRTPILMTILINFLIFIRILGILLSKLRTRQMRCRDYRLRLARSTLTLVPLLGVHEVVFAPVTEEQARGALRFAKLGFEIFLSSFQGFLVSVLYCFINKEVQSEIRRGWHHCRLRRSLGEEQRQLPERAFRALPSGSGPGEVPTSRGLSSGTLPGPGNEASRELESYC

Experiment [3] has as its target T3, full-length human GIPR (GenBank NM_000164) with an N-terminal FLAG tag on HEK-293T cells (human), P48546.
T3 chain: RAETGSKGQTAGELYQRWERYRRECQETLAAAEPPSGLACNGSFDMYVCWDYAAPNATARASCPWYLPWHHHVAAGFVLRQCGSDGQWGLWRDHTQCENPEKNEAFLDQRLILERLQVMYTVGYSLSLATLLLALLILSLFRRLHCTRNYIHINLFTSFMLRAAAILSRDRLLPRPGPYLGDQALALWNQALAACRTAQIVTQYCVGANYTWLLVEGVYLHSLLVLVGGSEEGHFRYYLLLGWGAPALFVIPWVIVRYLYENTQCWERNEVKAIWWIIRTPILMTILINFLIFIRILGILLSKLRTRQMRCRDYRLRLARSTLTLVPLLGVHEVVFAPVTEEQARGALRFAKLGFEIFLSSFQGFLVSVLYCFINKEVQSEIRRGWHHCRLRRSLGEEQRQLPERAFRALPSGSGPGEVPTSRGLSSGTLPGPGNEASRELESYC

The target in experiment [4] is T4, full-length human GLP-1R (GenBank NM_002062) with an N-terminal FLAG tag on HEK-293T cells (human), P43220.
T4 chain: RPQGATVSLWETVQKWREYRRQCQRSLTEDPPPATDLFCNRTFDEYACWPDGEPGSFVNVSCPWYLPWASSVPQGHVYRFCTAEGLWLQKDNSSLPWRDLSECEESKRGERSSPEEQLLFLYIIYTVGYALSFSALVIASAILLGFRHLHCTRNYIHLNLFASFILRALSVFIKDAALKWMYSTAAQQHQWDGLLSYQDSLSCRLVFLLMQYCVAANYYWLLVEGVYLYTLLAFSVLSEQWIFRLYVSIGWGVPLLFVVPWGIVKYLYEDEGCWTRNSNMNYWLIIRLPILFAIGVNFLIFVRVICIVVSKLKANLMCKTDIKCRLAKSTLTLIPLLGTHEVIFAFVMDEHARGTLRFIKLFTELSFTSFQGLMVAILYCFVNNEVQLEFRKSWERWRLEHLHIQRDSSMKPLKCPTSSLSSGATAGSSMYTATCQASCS

Results on 25 molecules are retold here after patent US20220135638A1 (Takeda / Millennium, published 2022).

Numbered stars: 1 amine (or outer) side, 2 acyl side, 3 side chain; on linkers, the order of the positions; unused ones are H or OH. Square brackets hold non-standard residues; d marks the D form. Primed or numbered codes have the meaning given here. Side chains are listed from the residue outwards. Ends that are not written are not given here. * marks the point of attachment. C20 diacid = O=C(O)CCCCCCCCCCCCCCCCCCC(=O)*; C18 diacid = O=C(O)CCCCCCCCCCCCCCCCC(=O)*; C16 diacid = O=C(O)CCCCCCCCCCCCCCC(=O)*; γGlu = O=C(O)[C@H](CCC(=O)[*:2])N[*:1]; Iva = CC[C@](C)(N)C(=O)O; PEG3′ = not defined here; AGlu = not defined here; Aib = CC(C)(N)C(=O)O Bounds are passed on as bounds.

Y[Aib]EGTFISDYSIALDR[Aib]HQ[Aib]NFVNW[Iva]LAQRPSSGAPPPSK([PEG3′-PEG3′-AGlu-C16 diacid]) (ends and bridges not checked) [Compound No. 21] yielded a hGLP-1R (Reporter gene assay)(EC50) in experiment [1] of over 1000 nM. The same molecule displayed a hGIPR (polyclonal) Reporter (EC50) in experiment [2] of 0.01 nM.
The molecule Y[Aib]EGTFISDYSIALDR[Aib]HQ[Aib]NFVNW[Iva]LAQRGGGGSGGGGSK([PEG3′-PEG3′-γGlu-C18 diacid]) (ends and bridges not checked) [Compound No 943] showed a GIP EC50(pM) in experiment [3] of 1.5 pM. The same molecule came in with a GLP EC50 in experiment [4] of 1.2 nM.
The molecule Y[Aib]EGTFISDYSIALDR[Aib]HQ[Aib]NFVNW[Iva]LAQRPSSGAPPPK([PEG3′-PEG3′-C20 diacid])R (ends and bridges not checked) [Compound No 941] showed a GIP EC50(pM) in experiment [3] of 0.4 pM. Besides, the GLP EC50 in experiment [4] stood at 1000 nM.
Take Y[Aib]EGTFISDYSIALDR[Aib]HQ[Aib]NFVNW[Iva]LAQRPSSGAPPK([PEG3′-PEG3′-C16 diacid])SR (ends and bridges not checked) [Compound No 933]: in experiment [3], the GIP EC50(pM) is 0.6 pM. In experiment [4], the GLP EC50 stood at 97.7 nM.
The like results for Y[Aib]EGTFISDYSIALDR[Aib]HQ[Aib]NFVNW[Iva]LAQRPK([PEG3′-PEG3′-C20 diacid])SGAPPPSR (ends and bridges not checked) [Compound No 894] were, in that order, 1.9 pM and 794 nM.
Y[Aib]EGTFISDYSIALDR[Aib]HQ[Aib]NFVNW[Iva]LAQRPSSGAPPK([PEG3′-PEG3′-C20 diacid])SR (ends and bridges not checked) [Compound No 935] showed a GIP EC50(pM) in experiment [3] of 1 pM. This molecule came in with a GLP EC50 in experiment [4] of 1000 nM.
For the molecule Y[Aib]EGTFISDYSIALDR[Aib]HQ[Aib]NFVNW[Iva]LAQRPSSGAPPPSK([PEG3′-PEG3′-AGlu-C18 diacid]) (ends and bridges not checked) [Compound No. 22], the hGLP-1R (Reporter gene assay)(EC50) in experiment [1] is over 1000 nM. Also, the hGIPR (polyclonal) Reporter (EC50) in experiment [2] amounted to 0.05 nM.
On to Y[Aib]EGTFISDYSIALDR[Aib]HQ[Aib]NFVNW[Iva]LAQRK([PEG3′-PEG3′-C18 diacid])SSGAPPPSR (ends and bridges not checked) [Compound No 912], for which the GIP EC50(pM) in experiment [3] was 0.7 pM. In experiment [4], this molecule gave a GLP EC50 of 105 nM.
The like results for Y[Aib]EGTFISDYSIALDR[Aib]HQ[Aib]NFVNW[Iva]LAQRPSSGAPK([PEG3′-PEG3′-C20 diacid])PSR (ends and bridges not checked) [Compound No 929] were, in that order, 1.8 pM and 46.8 nM.
In turn, Y[Aib]EGTFISDYSIALDR[Aib]HQ[Aib]NFVNW[Iva]LAQRPSK([PEG3′-PEG3′-C16 diacid])GAPPPSR (ends and bridges not checked) [Compound No 898] yielded a GIP EC50(pM) in experiment [3] of 0.6 pM. The GLP EC50 in experiment [4] was 74.1 nM.
As to Y[Aib]EGTFISDYSIALDR[Aib]HQ[Aib]NFVNW[Iva]LAQRPSK([PEG3′-PEG3′-C20 diacid])GAPPPSR (ends and bridges not checked) [Compound No 900], the GIP EC50(pM) in experiment [3] was found to be 0.7 pM. The same molecule yielded a GLP EC50 in experiment [4] of 219 nM.
The like results for Y[Aib]EGTFISDYSIALDR[Aib]HQ[Aib]NFVNW[Iva]LAQRPSSGAPK([PEG3′-PEG3′-C18 diacid])PSR (ends and bridges not checked) [Compound No 928] were, in that order, 1.6 pM and 135 nM.
The like results for Y[Aib]EGTFISDYSIALDR[Aib]HQ[Aib]NFVNW[Iva]LAQRPSSGAPPK([γGlu-γGlu-C18 diacid])S (ends and bridges not checked) [Compound No. 554] were, in that order, 0.82 pM and over 1000 nM.
With Y[Aib]EGTFISDYSIALDR[Aib]HQ[Aib]NFVNW[Iva]LAQRPK([PEG3′-PEG3′-C18 diacid])SGAPPPSR (ends and bridges not checked) [Compound No 893], the GIP EC50(pM) in experiment [3] is 2.3 pM. The GLP EC50 in experiment [4] stood at 2.1 nM.
With Y[Aib]EGTFISDYSIALDR[Aib]HQ[Aib]NFVNW[Iva]LAQRPSSGAPPPK([γGlu-γGlu-C18 diacid]) (ends and bridges not checked) [Compound No. 555], in experiment [3], the GIP EC50(pM) turned out to be 0.97 pM. Besides, the GLP EC50 in experiment [4] was over 1000 nM.
The corresponding values for Y[Aib]EGTFISDYSIALDR[Aib]HQ[Aib]NFVNW[Iva]LAQRPSSGAPPPK([PEG3′-PEG3′-C18 diacid])R (ends and bridges not checked) [Compound No 940] are 0.7 pM and 525 nM.
Y[Aib]EGTFISDYSIALDR[Aib]HQ[Aib]NFVNW[Iva]LAQRPSSGAPPPK([PEG3′-PEG3′-C16 diacid])R (ends and bridges not checked) [Compound No 939] showed a GIP EC50(pM) in experiment [3] of 0.6 pM. Moreover, in experiment [4], the GLP EC50 was 1000 nM.
On to Y[Aib]EGTVVSLYSI[Aib]LDKQAQ[Aib]EFVKWLLAQKK([PEG(2)-Pal]) (ends and bridges not checked) [Compound No. 20], for which the hGLP-1R (Reporter gene assay)(EC50) in experiment [1] was over 1000 nM. In experiment [2], this molecule displayed a hGIPR (polyclonal) Reporter (EC50) of 0.1 nM.
Y[Aib]EGTFISDYSIALDR[Aib]HQ[Aib]NFVNW[Iva]LAQRPSSGAPK([PEG3′-PEG3′-C16 diacid])PSR (ends and bridges not checked) [Compound No 927] yielded a GIP EC50(pM) in experiment [3] of 1.3 pM. The same molecule yielded a GLP EC50 in experiment [4] of 436 nM.
The corresponding values for Y[Aib]EGTFISDYSIALDR[Aib]HQ[Aib]NFVNW[Iva]LAQRPK([PEG3′-PEG3′-C16 diacid])SGAPPPSR (ends and bridges not checked) [Compound No 892] are 1.7 pM and 151 nM.
Regarding Y[Aib]EGTFISDYSIALDR[Aib]HQ[Aib]NFVNW[Iva]LAQRK([PEG3′-PEG3′-C16 diacid])SSGAPPPSR (ends and bridges not checked) [Compound No 911], the GIP EC50(pM) in experiment [3] was found to be 0.8 pM. For the same molecule, the GLP EC50 in experiment [4] was 93.3 nM.
The corresponding values for Y[Aib]EGTFISDYSIALDR[Aib]HQ[Aib]NFVNW[Iva]LAQRPSSGAPK([γGlu-γGlu-C18 diacid])PS (ends and bridges not checked) [Compound No. 553] are 1.08 pM and over 1000 nM.
Y[Aib]EGTFISDYSIALDR[Aib]HQ[Aib]NFVNW[Iva]LAQRPSK([PEG3′-PEG3′-C18 diacid])GAPPPSR (ends and bridges not checked) [Compound No 899]: in experiment [3], the GIP EC50(pM) came out at 0.7 pM. In addition, in experiment [4], the GLP EC50 came out at 144 nM.
Y[Aib]EGTFISDYSIALDR[Aib]HQ[Aib]NFVNW[Iva]LAQRPSSGAPPK([PEG3′-PEG3′-C18 diacid])SR (ends and bridges not checked) [Compound No 934] came in with a GIP EC50(pM) in experiment [3] of 0.6 pM. Also, the GLP EC50 in experiment [4] was 436 nM.
The like results for Y[Aib]EGTFISDYSIALDR[Aib]HQ[Aib]NFVNW[Iva]LAQRGGGGSK([PEG3′-PEG3′-γGlu-C18 diacid]) (ends and bridges not checked) [Compound No 942] were, in that order, 1.4 pM and 4.3 nM.
